Article PMC9482650, “Quantitative fragmentomics allow affinity mapping of interactomes” (Nature Communications, 2022)

T1: APBA1_2, Q02410
T1 sequence (Q02410 742-832, limits assumed, looked up): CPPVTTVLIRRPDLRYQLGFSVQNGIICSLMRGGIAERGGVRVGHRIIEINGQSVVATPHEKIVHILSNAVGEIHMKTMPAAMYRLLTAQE

T2: APBA2_1, Q99767
T2 sequence (Q99767 563-664, limits assumed, looked up): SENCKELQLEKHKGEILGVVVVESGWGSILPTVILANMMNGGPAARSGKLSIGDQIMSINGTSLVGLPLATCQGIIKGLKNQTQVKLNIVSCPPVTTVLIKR

T3: ARHGEF11, O15085
T3 sequence (O15085 42-136, limits assumed, looked up): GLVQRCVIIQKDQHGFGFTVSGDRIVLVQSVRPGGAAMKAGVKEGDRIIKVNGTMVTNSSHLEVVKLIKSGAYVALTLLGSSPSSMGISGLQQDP

T4: DVL3, Q92997
T4 sequence (Q92997 244-331, limits assumed, looked up): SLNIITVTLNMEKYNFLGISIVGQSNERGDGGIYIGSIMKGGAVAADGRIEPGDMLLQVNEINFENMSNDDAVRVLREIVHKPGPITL

T5: GRIP1_7, Q9Y3R0
T5 sequence (Q9Y3R0 999-1096, limits assumed, looked up): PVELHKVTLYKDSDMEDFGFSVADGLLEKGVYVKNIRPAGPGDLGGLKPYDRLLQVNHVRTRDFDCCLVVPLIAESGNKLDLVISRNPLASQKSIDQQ

T6: HTRA4, P83105
T6 sequence (P83105 378-476, limits assumed, looked up): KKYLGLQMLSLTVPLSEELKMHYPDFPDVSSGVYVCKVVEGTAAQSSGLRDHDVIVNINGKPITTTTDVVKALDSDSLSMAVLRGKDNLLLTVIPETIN

T7: LNX2_2, Q8N448
T7 sequence (Q8N448 334-432, limits assumed, looked up): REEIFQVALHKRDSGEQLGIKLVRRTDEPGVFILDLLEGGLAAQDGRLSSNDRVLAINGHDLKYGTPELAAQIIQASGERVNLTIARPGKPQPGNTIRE

T8: MPDZ_12, O75970
T8 sequence (O75970 1857-1958, limits assumed, looked up): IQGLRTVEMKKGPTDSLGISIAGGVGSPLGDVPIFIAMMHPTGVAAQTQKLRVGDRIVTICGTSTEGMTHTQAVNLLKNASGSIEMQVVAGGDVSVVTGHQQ

T9: MPP2, Q14168
T9 sequence (Q14168 180-250, limits assumed, looked up): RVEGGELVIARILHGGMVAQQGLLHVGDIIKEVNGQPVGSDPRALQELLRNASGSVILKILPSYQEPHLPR

T10: MPP7, Q5T2T1
T10 sequence (Q5T2T1 134-230, limits assumed, looked up): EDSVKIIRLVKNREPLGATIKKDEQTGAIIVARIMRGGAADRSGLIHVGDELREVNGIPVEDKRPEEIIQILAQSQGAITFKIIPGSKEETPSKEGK

T11: NHERF3_3, Q5T2W1
T11 sequence (Q5T2W1 238-333, limits assumed, looked up): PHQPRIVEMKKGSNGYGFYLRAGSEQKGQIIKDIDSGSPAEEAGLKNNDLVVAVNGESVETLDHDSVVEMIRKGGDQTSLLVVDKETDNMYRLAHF

T12: PDZD7_3, Q9H5P4
T12 sequence (Q9H5P4 857-944, limits assumed, looked up): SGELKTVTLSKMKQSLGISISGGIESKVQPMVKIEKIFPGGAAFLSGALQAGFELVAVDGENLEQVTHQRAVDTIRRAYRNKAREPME

T13: SNTG1, Q9NSN8
T13 sequence (Q9NSN8 52-150, limits assumed, looked up): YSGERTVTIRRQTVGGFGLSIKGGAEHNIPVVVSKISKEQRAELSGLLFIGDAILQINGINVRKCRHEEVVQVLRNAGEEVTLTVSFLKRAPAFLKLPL

T14: TIAM2, Q8IVF5
T14 sequence (Q8IVF5 885-986, limits assumed, looked up): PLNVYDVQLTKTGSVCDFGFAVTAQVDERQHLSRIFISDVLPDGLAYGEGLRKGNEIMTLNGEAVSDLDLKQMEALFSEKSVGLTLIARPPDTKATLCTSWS


Columns and labels:
Experiment in all cases: holdup assay
Design in all cases: key: below the threshold = too weak to quantify, mostly under pKd 3.1 to 4
Details in all cases: plain residues with an end cap or a label only (N-terminal biotin on a linker: ado-ado)
APBA1_2, Q02410 = molecular target: T1, APBA1_2, Q02410
APBA2_1, Q99767 = molecular target: T2, APBA2_1, Q99767
ARHGEF11, O15085 = molecular target: T3, ARHGEF11, O15085
ARHGEF12, Q9NZN5-2 = molecular target: ARHGEF12, Q9NZN5-2
Chain of ARHGEF12, Q9NZN5-2 (Q9NZN5 other isoform, or with tags, fused parts or gaps): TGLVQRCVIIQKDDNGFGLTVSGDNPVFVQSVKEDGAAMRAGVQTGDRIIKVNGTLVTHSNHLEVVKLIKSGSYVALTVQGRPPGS

DLG5_1, Q8TDM6 = molecular target: DLG5_1, Q8TDM6
Chain of DLG5_1, Q8TDM6 (Q8TDM6 617-713): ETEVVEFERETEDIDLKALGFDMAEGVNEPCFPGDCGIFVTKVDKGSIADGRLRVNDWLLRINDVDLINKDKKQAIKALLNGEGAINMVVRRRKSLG

DVL3, Q92997 = molecular target: T4, DVL3, Q92997
GOPC, Q9HD26 = molecular target: GOPC, Q9HD26
GRIP1_7, Q9Y3R0 = molecular target: T5, GRIP1_7, Q9Y3R0
GRIP2_3, Q9C0E4 = molecular target: GRIP2_3, Q9C0E4
Chain of GRIP2_3, Q9C0E4 (Q9C0E4 238-339): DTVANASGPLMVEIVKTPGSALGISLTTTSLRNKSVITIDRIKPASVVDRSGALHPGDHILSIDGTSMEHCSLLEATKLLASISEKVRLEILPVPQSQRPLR

HTRA2, O43464 = molecular target: HTRA2, O43464
Chain of HTRA2, O43464 (O43464 355-458): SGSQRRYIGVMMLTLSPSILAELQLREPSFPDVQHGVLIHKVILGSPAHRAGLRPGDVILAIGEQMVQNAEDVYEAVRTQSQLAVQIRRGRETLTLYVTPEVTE

HTRA4, P83105 = molecular target: T6, HTRA4, P83105
Inadl_3, Q8NI35 = molecular target: Inadl_3, Q8NI35
Chain of Inadl_3, Q8NI35 (Q8NI35 359-469): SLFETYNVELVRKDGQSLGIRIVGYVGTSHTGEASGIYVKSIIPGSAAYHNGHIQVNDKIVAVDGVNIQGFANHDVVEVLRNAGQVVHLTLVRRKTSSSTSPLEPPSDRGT

LIMK2, P53671 = molecular target: LIMK2, P53671
Chain of LIMK2, P53671 (P53671 143-248): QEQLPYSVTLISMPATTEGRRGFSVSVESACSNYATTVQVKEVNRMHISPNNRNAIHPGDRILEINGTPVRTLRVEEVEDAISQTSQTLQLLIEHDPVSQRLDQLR

LNX2_2, Q8N448 = molecular target: T7, LNX2_2, Q8N448
MAST2, Q6P0Q8 = molecular target: MAST2, Q6P0Q8
Chain of MAST2, Q6P0Q8 (Q6P0Q8 1099-1202): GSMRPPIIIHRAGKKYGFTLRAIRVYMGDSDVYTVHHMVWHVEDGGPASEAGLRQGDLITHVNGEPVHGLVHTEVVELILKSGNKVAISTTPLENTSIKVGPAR

MPDZ_12, O75970 = molecular target: T8, MPDZ_12, O75970
MPP2, Q14168 = molecular target: T9, MPP2, Q14168
MPP7, Q5T2T1 = molecular target: T10, MPP7, Q5T2T1
NHERF3_3, Q5T2W1 = molecular target: T11, NHERF3_3, Q5T2W1
PDZD7_3, Q9H5P4 = molecular target: T12, PDZD7_3, Q9H5P4
SCRIB_1, Q14160 = molecular target: SCRIB_1, Q14160
Chain of SCRIB_1, Q14160 (Q14160 718-814): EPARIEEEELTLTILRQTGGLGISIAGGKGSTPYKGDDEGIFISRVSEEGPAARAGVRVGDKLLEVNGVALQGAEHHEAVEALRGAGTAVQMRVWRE

SNTG1, Q9NSN8 = molecular target: T13, SNTG1, Q9NSN8
TIAM2, Q8IVF5 = molecular target: T14, TIAM2, Q8IVF5
TJP1_2, Q07157 = molecular target: TJP1_2, Q07157
Chain of TJP1_2, Q07157 (Q07157 181-274): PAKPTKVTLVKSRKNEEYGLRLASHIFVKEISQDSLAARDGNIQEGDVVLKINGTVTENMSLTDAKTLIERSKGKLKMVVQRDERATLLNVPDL

Row | Binder | pKd (APBA1_2, Q02410) | pKd (APBA2_1, Q99767) | pKd (ARHGEF11, O15085) | pKd (ARHGEF12, Q9NZN5-2) | pKd (DLG5_1, Q8TDM6) | pKd (DVL3, Q92997) | pKd (GOPC, Q9HD26) | pKd (GRIP1_7, Q9Y3R0) | pKd (GRIP2_3, Q9C0E4) | pKd (HTRA2, O43464) | pKd (HTRA4, P83105) | pKd (Inadl_3, Q8NI35) | pKd (LIMK2, P53671) | pKd (LNX2_2, Q8N448) | pKd (MAST2, Q6P0Q8) | pKd (MPDZ_12, O75970) | pKd (MPP2, Q14168) | pKd (MPP7, Q5T2T1) | pKd (NHERF3_3, Q5T2W1) | pKd (PDZD7_3, Q9H5P4) | further results
1 | LRSPRTPSEV [OR10G3, Q8NGC4] | 4.1 | below the threshold | below the threshold | 3.65 | below the threshold | below the threshold | below the threshold | below the threshold | below the threshold | below the threshold | 4 | below the threshold | below the threshold | below the threshold | 3.61 | 3.5 | below the threshold | below the threshold | 3.54 | below the threshold | pKd (SCRIB_1, Q14160): below the threshold; pKd (SNTG1, Q9NSN8): below the threshold; pKd (TIAM2, Q8IVF5): below the threshold; pKd (TJP1_2, Q07157): 3.62
2 | RRRESYSTTV [EVI5, O60447] | 3.74 | below the threshold | 4.68 | 4.74 | below the threshold | below the threshold | 4.36 | below the threshold | below the threshold | below the threshold | 4.08 | 3.99 | below the threshold | 5.2 | 5.66 | below the threshold | below the threshold | below the threshold | below the threshold | 4.61 | pKd (SCRIB_1, Q14160): 4.57; pKd (SNTG1, Q9NSN8): 3.63; pKd (TIAM2, Q8IVF5): below the threshold; pKd (TJP1_2, Q07157): below the threshold
